The results in this text go back to paper PMC3825789 (Nature biotechnology, 2013).

Residue numbers refer to the chain shown, from its start.

The target in the assay is insulin (Homo sapiens (species ), UniProt P01308). The experiment in a line: ELISA. A general note: In an ELISA, binding on a coated surface is turned into a signal by an enzyme label.
insulin, sequence (P01308 whole entry, looked up): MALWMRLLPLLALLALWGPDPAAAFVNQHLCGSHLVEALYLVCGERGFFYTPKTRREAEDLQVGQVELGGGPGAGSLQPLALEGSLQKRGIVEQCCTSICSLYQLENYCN

B1: ibalizumab L chain mutant LM52 (antibody, V domains shown)
VH: QVQLQQSGPEVVKPGASVKMSCKASGYTFTSYVIHWVRQKPGQGLDWIGYINPYNDGTDYDEKFKGKATLTSDTSTSTAYMELSSLRSEDTAVYYCAREKDNYATGAWFAYWGQGTLVTVSS
VL: DIVMTQSPDSLAVSLGERVTMNCKSSQSLLYSTNQKNYLAWYQQKPGQSPKLLIYWANSTESGVPDRFSGSGSGTDFTLTISSVQAEDVAVYYCQQYYSYRTFGGGTKLEIK
B1: the binding result was “no binding”.

B2: ibalizumab (wild type) (antibody, V domains shown)
VH: B1 VH
VL: B1 VL with N58S, S59T, T60R
Take B2: the binding result is given as “no binding”.
